Literature values as cited in US6610516B1, “Cell culture process” (Genentech, Inc., priority 1999, dated 2003).

B1: N117Q: t-PA variant wherein asparagine at position 117 of wild-type human t-PA was substituted with glutamine (protein, UniProt P00750 36-562, looked up, variant N117Q)
Tissue-type plasminogen …: SYQVICRDEKTQMIYQQHQSWLRPVLRSNRVEYCWCNSGRAQCHSVPVKSCSEPRCFNGGTCQQALYFSDFVCQCPEGFAGKCCEIDTRATCYEDQGISYRGTWSTAESGAECTNWQSSALAQKPYSGRRPDAIRLGLGNHNYCRNPDRDSKPWCYVFKAGKYSSEFCSTPACSEGNSDCYFGNGSAYRGTHSLTESGASCLPWNSMILIGKVYTAQNPSAQALGLGKHNYCRNPDGDAKPWCHVLKNRRLTWEYCDVPSCSTCGLRQYSQPQFRIKGGLFADIASHPWQAAIFAKHRRSPGERFLCGGILISSCWILSAAHCFQERFPPHHLTVILGRTYRVVPGEEEQKFEVEKYIVHKEFDDDTYDNDIALLQLKSDSSRCAQESSVVRTVCLPPADLQLPDWTECELSGYGKHEALSPFYSERLKEAHVRLYPSSRCTSQHLLNRTVTDNMLCAGDTRSGGPQANLHDACQGDSGGPLVCLNDGRMTLVGIISWGLGCGQKDVPGVYTKVTNYLDWIRDNMRP
B2: TNK t-PA: t-PA variant: glycosylation site added at position 103, removed at 117, positions 296-299 replaced by AAAA (protein, UniProt P00750 36-562, looked up, variant T103N N117Q K296A H297A R298A R299A)
Tissue-type plasminogen …: SYQVICRDEKTQMIYQQHQSWLRPVLRSNRVEYCWCNSGRAQCHSVPVKSCSEPRCFNGGTCQQALYFSDFVCQCPEGFAGKCCEIDTRATCYEDQGISYRGNWSTAESGAECTNWQSSALAQKPYSGRRPDAIRLGLGNHNYCRNPDRDSKPWCYVFKAGKYSSEFCSTPACSEGNSDCYFGNGSAYRGTHSLTESGASCLPWNSMILIGKVYTAQNPSAQALGLGKHNYCRNPDGDAKPWCHVLKNRRLTWEYCDVPSCSTCGLRQYSQPQFRIKGGLFADIASHPWQAAIFAAAAASPGERFLCGGILISSCWILSAAHCFQERFPPHHLTVILGRTYRVVPGEEEQKFEVEKYIVHKEFDDDTYDNDIALLQLKSDSSRCAQESSVVRTVCLPPADLQLPDWTECELSGYGKHEALSPFYSERLKEAHVRLYPSSRCTSQHLLNRTVTDNMLCAGDTRSGGPQANLHDACQGDSGGPLVCLNDGRMTLVGIISWGLGCGQKDVPGVYTKVTNYLDWIRDNMRP

Key:
fibrin = conditions: Keyt et al. 1994

Molecule | Clearance rate versus wild-type human t-PA (Hotchkiss et al., Lau et al.) | Fibrin specificity versus wild-type human t-PA (fibrin) | Circulatory half-life versus wild-type human t-PA (Keyt et al. 1994)
B1 | about two-fold slower clearance rate |  | 
B2 |  | markedly better fibrin specificity | increased circulatory half-life
